Drawing on article PMC7240154, this text covers dH1 (Sequential Binding Sites, site 1), dH2 (Sequential Binding Sites, site 2) and dH for 6 substances.

Holding throughout (test): ITC; Vps4 MIT domain (3 uM in PBS) in the cell, titrated with 19 injections of 10 ul of Vps2/24/46 or Vps20/32/60 (33 uM in PBS) at 2-min intervals; 25°C; ITC200; fits: One Set of Sites or Sequential Binding Sites
In general terms: ITC needs no label: the signal is the heat of the interaction.

Experiment [1] deals with Heimdallarchaeota_LC_3 Vps4 MIT domain (Heimdallarchaeota_LC_3).
Experiment [2] has as its target Lokiarchaeum_GC14_75 Vps4 MIT domain (Lokiarchaeum_GC14_75).
Experiment [3] concerns the target Odinarchaeota_LCB_4 Vps4 MIT domain (Odinarchaeota_LCB_4).

In experiment [1], “Heimdallarchaeota_LC_3 Vps2/24/46 (natural protein)” displayed a dH1 (Sequential Binding Sites, site 1) of -473 kcal/mol and a dH2 (Sequential Binding Sites, site 2) of 931 kcal/mol.
In experiment [2], “Lokiarchaeum_GC14_75 Vps2/24/46 (natural protein)” had a dH1 (Sequential Binding Sites, site 1) of -121 kcal/mol and a dH2 (Sequential Binding Sites, site 2) of 422 kcal/mol.
As to “Lokiarchaeum_GC14_75 Vps20/32/60 (natural protein)”, the dH in experiment [2] worked out at 1420 kcal/mol.
In experiment [3], “Odinarchaeota_LCB_4 Vps2/24/46 (natural protein)” yielded a dH of 392 kcal/mol.
“Odinarchaeota_LCB_4 Vps20/32/60 (natural protein)” gave a dH in experiment [3] of 331 kcal/mol.
In experiment [1], “Heimdallarchaeota_LC_3 Vps20/32/60 (natural protein)” showed a dH1 (Sequential Binding Sites, site 1) of 2780 kcal/mol and a dH2 (Sequential Binding Sites, site 2) of -2310 kcal/mol.
